Key:
[1] = molecular target: T1, RhoC Q63L, full length, as the C-terminal module of the RhoC FLARE.sc biosensor (UniProt P08134 1-193, Q63L); experiment: FRET or BRET; intramolecular FRET of the single-chain biosensor (binding domain-mCerulean-linker-mVenus-RhoC); fluorometry of cold, live HEK293T cell suspensions in PBS 48 h after transfection, excitation 433 nm, emission 450-600 nm, FRET/CFP ratio; details: partners not purified
T1 construct: RhoC GTPase, full length, with Q63L; On one chain with m1, as m2; also called constitutively active mutant; source: HEK293T, transfected (Lipofectamine2000), in live cell suspension; not shown: monomeric Venus, N-terminal, kept
T1 sequence (P08134 whole entry Q63L, the tested form may be a part): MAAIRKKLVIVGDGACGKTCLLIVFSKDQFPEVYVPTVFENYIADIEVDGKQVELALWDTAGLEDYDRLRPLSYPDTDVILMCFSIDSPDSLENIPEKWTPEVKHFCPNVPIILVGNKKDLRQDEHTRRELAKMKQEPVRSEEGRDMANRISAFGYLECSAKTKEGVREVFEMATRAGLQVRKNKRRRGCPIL

[2] = molecular target: T2, RhoC G14V, full length, as the C-terminal module of the RhoC FLARE.sc biosensor (UniProt P08134 1-193, G14V); experiment: as above; details: partners not purified
T2 construct: RhoC GTPase, full length, with G14V; On one chain with m1, as m2; also called constitutively active mutant; source: HEK293T, transfected (Lipofectamine2000), in live cell suspension; not shown: monomeric Venus, N-terminal, kept
T2 sequence (P08134 whole entry G14V): as the sequence (P08134 whole entry Q63L, the tested form may be a part) above, with G14V, L63Q counted along it

B1: ROCK1 Rho binding domain (RBD, amino acids 905-1046), as the N-terminal module of the RhoC FLARE.sc biosensor (domain or fragment, UniProt Q13464 905-1046, looked up)
chain: ARGLLEEQYFELTQESKKAASRNRQEITDKDHTVSRLEEANSMLTKDIEILRRENEELTEKMKKAEEEYKLEKEEEISNLKAAFEKNINTERTLKTQAVNKLAEIMNRKDFKIDRKKANTQDLRKKEKENRKLQLELNQERE
notes: It is split from RhoC here so that the intramolecular pair can be written; Subcloned into pTriEX-HisMyc4 (Novagen), which may add His and Myc tags; source: HEK293T, transfected (Lipofectamine2000), in live cell suspension; not shown: monomeric Cerulean, C-terminal, kept
increase in FRET ratio against the T19N biosensor [1]: 41% | increase in FRET ratio against the T19N biosensor [2]: 41%

From paper PMC3818223, “A RhoC Biosensor Reveals Differences in the Activation Kinetics of RhoA and RhoC in Migrating Cells” (PLoS ONE, 2013)
